The RNAGym collection of RNA variant scans (doi:10.7554/elife.90254)

B1: LINE1-mini (parent)
chain: GGCAGAGCUCAACACAGCGUGGCAAAGUGGCUGUGGCUAGACUGCC

Variants of: B1
Experiment: self-cleavage, relative activity (ratio to wild type); higher = more cleavage; in vitro, sequencing; the parent is a self-cleaving ribozyme

Variant | self-cleavage
A4C A26G | 0.15
G17A G19C | 1.09
G19U A24U | 0.81
A11C G35U | 0.02
U34G U43A | 0.21
C15G A39C | 0.02
U34C U38G | 0.06
C8G C23A | 0.1
C46A | 0.9
G27A G36C | 0.25
G35A U43C | 0.07
U43C C46U | 0.1
U34C C37U | 0.05
A6G U20A | 0.04
U9G U38C | 0.09
C8U | 0.29
A16C C45U | 0.07
C13G U34G | 0.03
C10G U20A | 0.06
G5C U43A | 0.05
U9C A39U | 0.05

Variant | self-cleavage
C3U G36A | 0.34
A25C G33C | 0.04
G22C A41G | 0.23
A14G G44U | 0.19
C18A U43A | 0.08
C15A G44U | 0.04
C13G G44C | 0.05
G2A C45G | 0.75
G21A G33U | 0.26
U20A G27C | 0.24
G21A U28A | 1.94
A26G C31U | 0.15
C8G C13U | 0.18
U20A G27A | 0.83
G27A | 0.81
C13U G33A | 0.07
A25G G30U | 0.89
A12U U28C | 0.6
C10A U34G | 0.04
C23A U28A | 0.78
G29C C45A | 0.45

Variant | self-cleavage
G7U G44U | 0.2
G30U G33C | 0.11
G7U G29A | 0.06
G2A A4G | 0.42
C18G C45U | 0.13
U38C C45G | 0.47
C23G A41G | 0.37
G1U C15U | 0.21
A24C U32A | 0.08
G19U U20G | 0.77
C3G A39C | 0.14
C3U A16U | 0.09
G19A U43A | 0.15
G5C U20A | 0.04
G35C G44U | 0.06
A41G U43G | 0.05
G2C C18G | 0.05
A4U G22U | 0.52
C42G C45A | 0.04
C18U U20G | 0.41
C10A A41U | 0.02

Variant | self-cleavage
U9A G44A | 0.31
G27A G35U | 0.22
G22U A26C | 1.53
G5C G36A | 0.06
G17C U34G | 0.1
G22C C46G | 0.13
G1C C18G | 0.03
C8A A11U | 0.03
A16C C45A | 0.07
A12U C18G | 0.17
A4U C10A | 0.04
G21C A41U | 0.5
G7A C46G | 0.36
U20G U43C | 0.04
C3U C8A | 0.38
U20G C37A | 0.02
G29U C46A | 0.82
A12C A24U | 0.03
A25C | 0.66
G19C A39C | 0.05
G2A G17A | 0.2
